Measured values as given in publication PMC6408259.

Target: T1, DJ-1 (human (endogenous in M17D neuroblastoma cells)), Q99497
T1 chain: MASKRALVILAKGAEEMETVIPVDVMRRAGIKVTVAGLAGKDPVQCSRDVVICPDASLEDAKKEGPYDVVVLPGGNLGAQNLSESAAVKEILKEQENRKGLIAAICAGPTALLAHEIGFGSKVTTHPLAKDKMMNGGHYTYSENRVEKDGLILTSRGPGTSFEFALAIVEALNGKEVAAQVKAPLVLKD
Assay: cross-linking
Conditions: remark: other sources report otherwise

B1: DJ-1, Q99497 1-189 (natural protein)
chain: MASKRALVILAKGAEEMETVIPVDVMRRAGIKVTVAGLAGKDPVQCSRDVVICPDASLEDAKKEGPYDVVVLPGGNLGAQNLSESAAVKEILKEQENRKGLIAAICAGPTALLAHEIGFGSKVTTHPLAKDKMMNGGHYTYSENRVEKDGLILTSRGPGTSFEFALAIVEALNGKEVAAQVKAPLVLKD
stoichiometry N: 2
